Paper PMC5441565 (Nature, 2017)
Blank lines part the entries; values can stand above or below the molecule they belong to.

What was measured:
[1] = target: mCherry-LacI-TIRR (human) (UniProt Q9BRJ7); experiment: LacO/LacI tethering
GFP-LacI-53BP1 (human) = GFP-LacI-53BP1 (human) (UniProt Q12888); experiment: LacO/LacI tethering
[2] = target: TIRR-His (recombinant TIRR) (human, UniProt Q9BRJ7 1-211); experiment: ITC
Chain of TIRR-His (recombinant TIRR) (Q9BRJ7 whole entry): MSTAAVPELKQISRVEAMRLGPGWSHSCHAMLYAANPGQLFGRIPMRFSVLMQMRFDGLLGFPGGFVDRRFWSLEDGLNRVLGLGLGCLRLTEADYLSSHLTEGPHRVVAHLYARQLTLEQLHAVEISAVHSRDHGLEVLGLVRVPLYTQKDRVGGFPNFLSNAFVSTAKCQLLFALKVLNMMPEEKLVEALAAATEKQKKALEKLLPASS

Chain of GFP-LacI-53BP1 (human) (Q12888 whole entry): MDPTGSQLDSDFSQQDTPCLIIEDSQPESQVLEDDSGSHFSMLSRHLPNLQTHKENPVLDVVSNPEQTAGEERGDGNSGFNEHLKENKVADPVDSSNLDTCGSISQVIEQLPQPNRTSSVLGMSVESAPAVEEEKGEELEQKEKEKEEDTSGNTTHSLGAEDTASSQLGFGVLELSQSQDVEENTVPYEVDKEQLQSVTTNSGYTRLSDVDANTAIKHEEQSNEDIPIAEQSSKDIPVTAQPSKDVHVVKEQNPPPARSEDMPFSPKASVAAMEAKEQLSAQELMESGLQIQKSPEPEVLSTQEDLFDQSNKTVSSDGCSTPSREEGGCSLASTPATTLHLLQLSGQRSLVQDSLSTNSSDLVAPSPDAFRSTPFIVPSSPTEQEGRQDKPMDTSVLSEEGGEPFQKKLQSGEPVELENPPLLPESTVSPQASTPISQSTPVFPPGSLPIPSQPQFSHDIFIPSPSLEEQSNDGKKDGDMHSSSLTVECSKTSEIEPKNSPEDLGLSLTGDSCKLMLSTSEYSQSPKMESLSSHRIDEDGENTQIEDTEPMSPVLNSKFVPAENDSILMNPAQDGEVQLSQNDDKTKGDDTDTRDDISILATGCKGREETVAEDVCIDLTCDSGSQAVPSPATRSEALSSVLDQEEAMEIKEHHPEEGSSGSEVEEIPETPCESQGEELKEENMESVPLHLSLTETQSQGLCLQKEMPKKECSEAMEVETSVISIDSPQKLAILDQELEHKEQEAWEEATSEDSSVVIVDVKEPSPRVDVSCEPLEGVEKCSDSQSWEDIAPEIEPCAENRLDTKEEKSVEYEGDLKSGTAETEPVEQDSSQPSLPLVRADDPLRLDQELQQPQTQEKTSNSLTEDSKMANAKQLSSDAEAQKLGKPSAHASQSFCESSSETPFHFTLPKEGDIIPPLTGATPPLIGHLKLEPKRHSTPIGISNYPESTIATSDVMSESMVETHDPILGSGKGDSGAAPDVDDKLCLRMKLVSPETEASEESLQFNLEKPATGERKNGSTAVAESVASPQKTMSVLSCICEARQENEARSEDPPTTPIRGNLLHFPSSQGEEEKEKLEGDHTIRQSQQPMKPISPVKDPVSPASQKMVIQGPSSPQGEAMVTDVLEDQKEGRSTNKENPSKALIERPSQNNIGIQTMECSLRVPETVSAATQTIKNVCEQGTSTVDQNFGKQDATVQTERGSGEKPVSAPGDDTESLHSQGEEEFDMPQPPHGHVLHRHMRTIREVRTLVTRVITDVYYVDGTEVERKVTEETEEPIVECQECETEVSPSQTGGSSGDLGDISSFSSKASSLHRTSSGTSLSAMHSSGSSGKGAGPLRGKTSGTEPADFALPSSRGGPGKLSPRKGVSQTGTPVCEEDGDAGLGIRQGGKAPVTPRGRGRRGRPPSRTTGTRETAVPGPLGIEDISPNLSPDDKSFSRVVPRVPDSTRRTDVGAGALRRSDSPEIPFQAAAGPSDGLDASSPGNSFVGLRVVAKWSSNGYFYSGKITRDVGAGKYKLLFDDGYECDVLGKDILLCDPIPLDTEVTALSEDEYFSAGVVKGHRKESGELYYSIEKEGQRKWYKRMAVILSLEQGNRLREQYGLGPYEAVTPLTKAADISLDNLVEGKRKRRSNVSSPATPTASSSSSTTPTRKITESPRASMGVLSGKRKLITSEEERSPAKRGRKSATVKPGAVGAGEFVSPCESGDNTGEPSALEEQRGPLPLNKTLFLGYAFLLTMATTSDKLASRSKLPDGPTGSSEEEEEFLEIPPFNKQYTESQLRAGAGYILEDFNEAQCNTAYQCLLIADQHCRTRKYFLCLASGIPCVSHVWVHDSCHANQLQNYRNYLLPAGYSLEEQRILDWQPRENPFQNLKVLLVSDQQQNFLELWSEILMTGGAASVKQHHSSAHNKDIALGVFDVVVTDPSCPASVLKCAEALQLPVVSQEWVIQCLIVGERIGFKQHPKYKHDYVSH
Chain of mCherry-LacI-TIRR (human) (Q9BRJ7 whole entry): as the sequence (Q9BRJ7 whole entry) above

percent of cells with co-localisation on the LacO array (% of the cells) [1]: 57.5
Molecule: 53BP1 (P53-binding protein 1), endogenous (from UniProt Q12888 1-1972) (natural protein)

percent of cells with co-localisation on the LacO array (% of the cells) (GFP-LacI-53BP1 (human)): 72
Molecule: mCherry-TIRR (from UniProt Q9BRJ7 1-211) (natural protein)

Kd [2]: 790 nM
stoichiometry N [2]: 1
B1: 53BP1 tandem Tudor domain (for ITC and NMR) (domain or fragment)
chain: NSFVGLRVVAKWSSNGYFYSGKITRDVGAGKYKLLFDDGYECDVLGKDILLCDPIPLDTEVTALSEDEYFSAGVVKGHRKESGELYYSIEKEGQRKWYKRMAVILSLEQGNRLREQYGLG
modifications: 15N-labelled for NMR; limits from PDB 2G3R (GHM tag remnant left out)
